Measurements taken from article PMC5031973.

Target: recombinant human β-actin (wild type) (human) (UniProt P60709)
Assay: ITC; VP-ITC, 25 °C, G-buffer (5 mM Tris-HCl pH 7.8, 0.1 mM CaCl2, 0.2 mM DTT, 0.2 mM ATP, 0.01% NaN3); 29 injections of 10 μl Tβ4 (100 μM) into actin (10 μM) in the cell

With “thymosin β4 (from UniProt P62328 1-44) (peptide)” the Kd was 500 nM.
